According to patent publication US20220396612A1 (UNIVERSIT DE TOURS, published 2022):

T1: virus-like particles (VLPs) of BK polyomavirus VP-1 protein, serotype IV (BK virus (BKPyV), serotype IV, UniProt P14996 1-362)
T1 construct: native VLPs; also called VLP IV
T1 chain: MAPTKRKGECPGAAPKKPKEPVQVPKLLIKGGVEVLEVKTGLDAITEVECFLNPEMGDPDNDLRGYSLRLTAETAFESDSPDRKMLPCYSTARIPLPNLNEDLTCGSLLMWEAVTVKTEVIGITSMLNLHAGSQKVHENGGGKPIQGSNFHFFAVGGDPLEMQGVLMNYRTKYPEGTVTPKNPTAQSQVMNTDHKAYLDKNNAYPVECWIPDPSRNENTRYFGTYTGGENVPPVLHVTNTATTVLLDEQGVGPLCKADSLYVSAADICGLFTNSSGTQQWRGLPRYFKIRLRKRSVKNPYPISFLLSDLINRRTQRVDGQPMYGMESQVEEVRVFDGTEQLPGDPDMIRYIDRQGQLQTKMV

T2: virus-like particles (VLPs) of BK polyomavirus VP-1 protein, serotype Ib2 (BK virus (BKPyV), serotype Ib2, PA …, UniProt P03088 1-362)
T2 construct: native VLPs; also the immunogen; also called VLP Ib2; BK Ib2
T2 chain: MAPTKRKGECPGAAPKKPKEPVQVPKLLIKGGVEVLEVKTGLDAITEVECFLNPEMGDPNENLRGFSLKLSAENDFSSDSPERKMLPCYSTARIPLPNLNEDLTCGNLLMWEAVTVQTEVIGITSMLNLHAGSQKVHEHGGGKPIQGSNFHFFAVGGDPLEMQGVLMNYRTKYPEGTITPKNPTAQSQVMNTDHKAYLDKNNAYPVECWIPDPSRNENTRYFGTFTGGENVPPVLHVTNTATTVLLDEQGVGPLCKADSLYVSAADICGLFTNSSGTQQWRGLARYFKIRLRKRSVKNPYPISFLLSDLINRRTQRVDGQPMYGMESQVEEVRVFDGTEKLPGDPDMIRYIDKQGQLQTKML

T3: virus-like particles (VLPs) of BK polyomavirus VP-1 protein, serotype II (BK virus (BKPyV), serotype II, UniProt P14996 1-362)
T3 construct: native VLPs; also called VLP II
T3 chain: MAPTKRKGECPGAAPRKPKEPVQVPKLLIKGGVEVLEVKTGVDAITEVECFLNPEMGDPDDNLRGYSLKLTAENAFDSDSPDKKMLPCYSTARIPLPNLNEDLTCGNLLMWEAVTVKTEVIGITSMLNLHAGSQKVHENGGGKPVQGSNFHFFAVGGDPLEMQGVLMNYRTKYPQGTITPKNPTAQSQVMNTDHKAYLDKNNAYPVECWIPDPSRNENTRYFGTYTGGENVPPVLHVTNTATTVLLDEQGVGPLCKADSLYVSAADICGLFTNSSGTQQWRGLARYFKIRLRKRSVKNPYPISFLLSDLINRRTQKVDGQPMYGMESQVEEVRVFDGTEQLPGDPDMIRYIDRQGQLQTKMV

T4: virus-like particles (VLPs) of BK polyomavirus VP-1 protein, serotype Ia (BK virus (BKPyV), serotype Ia, UniProt P03088 1-361)
T4 construct: self-assembled native VLPs coated on ELISA plates; also called VLP Ia; BKV VP-1, serotype Ia
T4 chain: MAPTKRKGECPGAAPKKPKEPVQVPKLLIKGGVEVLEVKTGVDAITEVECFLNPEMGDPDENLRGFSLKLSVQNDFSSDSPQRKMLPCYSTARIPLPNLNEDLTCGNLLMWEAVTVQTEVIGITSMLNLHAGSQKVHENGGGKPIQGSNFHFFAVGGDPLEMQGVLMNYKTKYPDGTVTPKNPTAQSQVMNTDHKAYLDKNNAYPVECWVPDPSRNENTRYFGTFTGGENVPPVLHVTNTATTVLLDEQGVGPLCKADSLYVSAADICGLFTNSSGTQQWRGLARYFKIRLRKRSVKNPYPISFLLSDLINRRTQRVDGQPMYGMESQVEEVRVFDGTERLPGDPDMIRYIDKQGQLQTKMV

T5: virus-like particles (VLPs) of BK polyomavirus VP-1 protein, serotype III (BK virus (BKPyV), serotype III, UniProt P14996 1-362)
T5 construct: native VLPs; also called VLP III
T5 chain: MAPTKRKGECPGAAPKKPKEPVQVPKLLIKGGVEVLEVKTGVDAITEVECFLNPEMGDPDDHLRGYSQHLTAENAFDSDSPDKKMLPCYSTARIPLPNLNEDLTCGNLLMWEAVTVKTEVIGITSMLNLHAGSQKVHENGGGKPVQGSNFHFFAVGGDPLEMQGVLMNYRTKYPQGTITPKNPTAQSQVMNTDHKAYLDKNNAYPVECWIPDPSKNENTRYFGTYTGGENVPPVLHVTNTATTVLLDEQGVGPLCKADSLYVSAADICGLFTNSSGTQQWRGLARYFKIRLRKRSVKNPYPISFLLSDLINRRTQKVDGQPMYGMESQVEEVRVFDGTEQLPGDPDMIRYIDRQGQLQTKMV


What was measured:
[1] = molecular target: T6, virus-like particles (VLPs) of JC polyomavirus VP-1 protein (JC virus (JCPyV), UniProt P03089 1-354, Assembled into virus-like particles (many VP-1 copies); the letters give one VP-1 chain.); assay: ELISA on coated JCPyV VLPs
T6 construct: Expressed in insect cells by baculovirus; VLPs coated on ELISA plates; also called JCPyV VLPs; JCPyV
T6 sequence (P03089 whole entry): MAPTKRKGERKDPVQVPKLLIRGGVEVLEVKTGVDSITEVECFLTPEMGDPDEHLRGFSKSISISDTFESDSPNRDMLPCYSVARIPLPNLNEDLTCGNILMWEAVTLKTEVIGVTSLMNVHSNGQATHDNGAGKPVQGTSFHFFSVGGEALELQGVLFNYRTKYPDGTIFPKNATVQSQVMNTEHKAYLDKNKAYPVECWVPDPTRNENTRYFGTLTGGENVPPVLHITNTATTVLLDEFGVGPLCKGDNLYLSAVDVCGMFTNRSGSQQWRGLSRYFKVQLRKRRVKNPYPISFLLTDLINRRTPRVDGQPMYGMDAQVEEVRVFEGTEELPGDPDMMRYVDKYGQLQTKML

[2] = molecular target: T1, virus-like particles (VLPs) of BK …; assay: ELISA on coated VLP;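 note: hybridoma culture supernatants (mouse antibodies) tested on wells coated with 1 µg/mL VLPs, peroxidase anti-mouse detection with OPD, background from PBS-coated control wells subtracted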
Method: (§1) To do this, the VLPs produced were deposited at a concentration of 1 μg/mL in PBS and incubated overnight at +4° C. The wells were then blocked for 1 h at +37° C. with a PBS/FCS (phosphate-buffered saline/fetal calf serum) mixture. After dilution in a dilution buffer containing FCS, PBS and Tween® 20, the various hybridoma culture supernatants were added for 1 h at +37° C. The wells were washed four times in a row with Wash Buffer and a secondary anti-mouse antibody coupled to peroxidase was added to the 1:2000 dilution for 1 h at +37° C. The wells were washed four more times and the substrate (OPD (ortho phenylene diamine)+H₂O₂) was added for 30 min at room temperature. A stop solution (H₂SO₄ 4N) was then added and each well was read by measuring the absorbance at 492 nm with a spectrophotometer. The value obtained for the average of the control wells (PBS in the first step) is subtracted from the optical density values obtained for each well.

[3] = molecular target: T2, virus-like particles (VLPs) of BK …; assay: ELISA on coated VLP;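 note: hybridoma culture supernatants (mouse antibodies) tested on wells coated with 1 µg/mL VLPs, peroxidase anti-mouse detection with OPD, background from PBS-coated control wells subtracted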
Method: as §1

[4] = molecular target: T3, virus-like particles (VLPs) of BK …; assay: ELISA on coated VLP;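 note: hybridoma culture supernatants (mouse antibodies) tested on wells coated with 1 µg/mL VLPs, peroxidase anti-mouse detection with OPD, background from PBS-coated control wells subtracted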
Method: as §1

[5] = molecular target: T4, virus-like particles (VLPs) of BK …; assay: ELISA on coated VLP;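 note: hybridoma culture supernatants (mouse antibodies) tested on wells coated with 1 µg/mL VLPs, peroxidase anti-mouse detection with OPD, background from PBS-coated control wells subtracted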
Method: as §1

[6] = molecular target: T5, virus-like particles (VLPs) of BK …; assay: ELISA on coated VLP
Method: as §1

[7] = molecular target: T1, virus-like particles (VLPs) of BK …; assay: ELISA on not denatured VLP (threshold OD>0.5)
Method: (§2) The wells were then blocked for 1 hour at +37° C. with a PBS/SVF mixture. After dilution in a dilution buffer containing SVF, PBS and Tween® 20, the individual culture supernatants or purified antibodies were added for 1 hour at +37° C. The wells were washed four times in a row with Wash Buffer and a secondary anti-mouse peroxidase antibody was added to the 1/2000 dilution for 1 hour at +37° C. The wells were washed again four times in a row and the substrate was added for 30 minutes at room temperature. A stop solution was added and then each well was read by measuring the absorbance at 492 nm with a spectrophotometer. The value obtained for the average of the control wells (PBS in the first step) was subtracted from the optical density values obtained for each well (detection threshold: OD>0.5).

[8] = molecular target: T2, virus-like particles (VLPs) of BK …; assay: ELISA on not denatured VLP (threshold OD>0.5)
Method: as §2

[9] = molecular target: T3, virus-like particles (VLPs) of BK …; assay: ELISA on not denatured VLP (threshold OD>0.5)
Method: as §2

[10] = molecular target: T4, virus-like particles (VLPs) of BK …; assay: ELISA on not denatured VLP (threshold OD>0.5)
Method: as §2

[11] = molecular target: T6, virus-like particles (VLPs) of JC …; assay: ELISA on coated VLP (detection limit OD>0.5)
Method: as §1

[12] = molecular target: T2, virus-like particles (VLPs) of BK …; assay: ELISA on coated VLP (detection limit OD>0.5)
Method: as §1

| Binder | binding result [1] | OD 492 nm [2] [OD] | OD 492 nm [3] [OD] | OD 492 nm [4] [OD] | OD 492 nm [5] [OD] | OD 492 nm [6] [OD] | OD 492 nm [7] [OD] | OD 492 nm [8] [OD] | OD 492 nm [9] [OD] | OD 492 nm [10] [OD] | OD 492 nm [11] [OD] | OD 492 nm [12] [OD] |
| --- | --- | --- | --- | --- | --- | --- | --- | --- | --- | --- | --- | --- |
| monoclonal antibody ‘9B1’ derived from hybridoma 9B1 (antibody, V domains shown, also called ‘91B1’) VH: DVQLQESGPGLVKPSQSLSLTCSVTGYSITSGYYWNWIRQFPGNKLEWMGYISYDGSNNYNPSLKNRISITRDTSKNQFFLKLNSVTTEDTATYYCARVDGNSWYFDVWGAGTTVTVSS VL: DIQMTQSSSSFSVSLGDRVTITCKASEDIYNRLAWYQQKPGNAPRLLISGATSLETGVPSRFSGSGSGKDYTLSITSLQTEDVATYYCQQYWSILLTFGAGTKLELK | no binding (tested: detection limit: OD>0.5) | 2.52 | 3.3 | 1.75 | 3.13 | 1.74 | 2.12 | 1.41 | 1.07 | 4.21 | 0.119 | 1.41 |
| monoclonal antibody ‘14D6’ derived from hybridoma 14D6 (antibody, V domains shown) VH: DVQLQESGPGLVKPSQSLSLTCSVTGYSITSGYYWNWIRQFPGNKLEWMGYISYDGSNNYNPSLKNRISITRDTSKNQFFLKLNSVTTEDTATYYCARWVGDWYFDVWGAGTTVTVSS VL: DIVLTQSPASLAVSLGQRATISCRASKSVSPSGYSYMHWYQQKPGQPPKLLIYLASNLESGVPARFSGSGSGTDFTLNIHPVEEEDAATYYCQHSRELPLTFGAGTKLELK | no binding (tested: detection limit: OD>0.5) | 2.62 | 3.24 | 3.08 | 3.24 | 2.55 | 2.63 | 1.55 | 1.66 | 4.04 | 0.112 | 1.55 |
